± gives the uncertainty stated by the source.

The record followed here is the supplement of paper PMC12042874.

This data set in a line: amyloid nucleation score (Sup35N fusion, yeast selection) (log enrichment); library NNK2; higher = more nucleation; inactive = no reads after selection. In a few lines: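 Random libraries were run with three technical output replicates. In each, psi-negative yeast expressing Sup35N fused to peptides of 20 random codons were induced 24 hours with 100 μM copper sulfate and grown 7 days at 30°C on medium lacking adenine and uracil, and input and output plasmid inserts were Illumina-sequenced. The nucleation score is the DiMSum log enrichment of output over input reads, centred on the mode score of non-aggregating sequences, and sequences under 100 input reads were excluded.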
Take HIDEYKWT: the amyloid nucleation score turned out to be 0.546 ± 0.8. For the substance HIDNVGVLR, the amyloid nucleation score is 1.18 ± 0.28.

HIFHCLSMGILGCSMFLCLD came in with an amyloid nucleation score of 0.952 ± 0.24. Substance HIGCIRWFSCGGSPLSMNRL yielded an amyloid nucleation score of 1.24 ± 0.2.

Take HIIISKYHINYCRMMNYSGK: the amyloid nucleation score is 8.137 ± 0.056. HKCGTPFAIHIYRSKQLPGV yielded an amyloid nucleation score of -0.305 ± 1. The result for HKGCGNSCIWHYFGNFWRFR reads -0.658 ± 0.56; that for HKGFEPVGRGYALCSTWLVV, 6.37 ± 0.074.

In the case of HKGWIKLLLPAHQLITLPPN, the amyloid nucleation score was 0.174 ± 1.

Take HKWCKYNDLFVIHMSGFGRG: the amyloid nucleation score came to 5.44 ± 0.087. In turn, HKWWSAPGSLAS showed an amyloid nucleation score of -0.038 ± 0.79.

In the case of HLASFFSSVSYSSDLAYSGT, the amyloid nucleation score is -1.02 ± 0.78. HLFVASYDKRVECFLSVKGE: the amyloid nucleation score entry was “inactive”.

HLMCESGRVFWKD yielded an amyloid nucleation score of 0.015 ± 0.31. Turning to HLRIGLIN, the amyloid nucleation score was -0.467 ± 0.43. With HLSGYKLLIKSVYFE the figure was 3.63 ± 0.067; with HLTAYCMSTHRQACDVDFDF, -0.067 ± 1.1; with HLWFLCRSYGGVLKFHTESV, 1.03 ± 0.43. Consider HLWSLRGPIAFIENRLSVWI, for which the amyloid nucleation score was found to be 0.605 ± 0.51.

HLYRSCVNKLL came in with an amyloid nucleation score of -0.833 ± 1.1. HMMFKSPYRCLLLNLTGYVL came in with an amyloid nucleation score of 0.934 ± 0.25. Consider HMQPYIRESISVG, for which the amyloid nucleation score result is “inactive”. The result for HMSVGNFLIPLCITMLRGIG reads -0.347 ± 1.1; that for HNLCGYLLVSVAWVLWWIRR, 2.61 ± 0.11; that for HNSNYHIYGWVMVRRRIGYI, “inactive”. As to HNTKSYLWV, the amyloid nucleation score result is “inactive”. The result for HNWLSMVQYH reads -0.344 ± 0.76. For HPFVSDCVMDLKFTVVTGLV, the amyloid nucleation score worked out at 0.086 ± 0.3. HPYYDQ: the amyloid nucleation score was 0.538 ± 0.45. HRDHGTISLHRKCSYVALAS returned an amyloid nucleation score of 1.14 ± 0.29. In the case of HRMAPMGVISGNVLLPLSVW, the amyloid nucleation score result was “inactive”. Substance HRNQTASKGCSCLLDCHDTG had an amyloid nucleation score of 0.356 ± 0.23. The result for HRTLFKGPSWLPKRRERAIL reads -0.097 ± 0.79; that for HRVFNEGASMGTCCSILLEM, 6.047 ± 0.042.

As to HRYSRLRRVHYSYRSKGLNH, the amyloid nucleation score entry is “inactive”.

With HSFVNNEKASQMSSCETGGS, the amyloid nucleation score was -0.509 ± 0.41.

For HSLMQLYLVIFLAHFQSYGL, the amyloid nucleation score came out at 0.604 ± 0.44. The result for HSMAWNVG reads “inactive”; that for HSNGKMNTTIHVVSELTVMR, 4.31 ± 0.058; that for HSNLVT, 0.234 ± 0.41. The substance HSPNCYKMSGRFLCD came in with an amyloid nucleation score of -1.77 ± 0.54. HSRHHWYPSWQFWMLRPQNC returned an amyloid nucleation score of 1.4 ± 0.43. In turn, HSSGCYF showed an amyloid nucleation score of 0.081 ± 1.1.

Substance HSTVSLQSGRMNVVASGVIH gave an amyloid nucleation score of 1.62 ± 0.11.

As for HTGLFWS, the amyloid nucleation score result was “inactive”. Substance HTSVLNMTGSGLIPN displayed an amyloid nucleation score of -1.82 ± 0.78. On to HTTDFIVLMVRSDASIRLWS, for which the amyloid nucleation score amounted to 4.1 ± 0.077. Consider HVEHGNCFQ, for which the amyloid nucleation score entry is “inactive”. Regarding HVTWKNMIIDYLVP, the amyloid nucleation score stood at 0.615 ± 0.6. With HVVVDSSVVAGCFTVFCRGI the figure was 8.265 ± 0.046. The result for HWMVGKV reads 0.164 ± 0.28; that for HWVCKIILRGHSSMYCSDGC, 3.35 ± 0.11; that for HWWLVIAMNRLGCFGEFMMR, -0.547 ± 0.63. Take HWYVVDLVRVNYRALNSKWW: the amyloid nucleation score came to 0.194 ± 0.56. In turn, HYMRFYCCSYNANKTVSYVP yielded an amyloid nucleation score of 8.72 ± 0.028. With HYSGGCSLPSVKERVGTSIG, the amyloid nucleation score is -0.604 ± 0.76.

On to HYVIVNIICCSDVGVLSRDR, for which the amyloid nucleation score came to 9.454 ± 0.069.

Regarding IALQDSDFSLLWFMHVCWDE, the amyloid nucleation score is -0.463 ± 0.74. On to IANKCVS, for which the amyloid nucleation score is -1.12 ± 0.55. IANRGNAKHVRWICMMHHRS: the amyloid nucleation score was 0.479 ± 0.41. In turn, IANWSKYSASTCLVMTHAMA registered an amyloid nucleation score of -0.302 ± 0.28.

Substance IARDYVQ showed an amyloid nucleation score of -0.918 ± 0.54. Regarding IASRLTPHSLYFLINVGRGR, the amyloid nucleation score is 2.88 ± 0.14. Consider IATYIR, for which the amyloid nucleation score was -0.179 ± 0.63. The substance IAVERS gave an amyloid nucleation score of -0.464 ± 1.1.

For ICCRRSMPMIINDLNFMSNS, the amyloid nucleation score was 7.928 ± 0.035. With ICETGMGSKVGHEPVTAQ, the amyloid nucleation score amounted to 0.598 ± 0.57.

The substance ICFTCQYFNKYPGRS displayed an amyloid nucleation score of 4.31 ± 0.09. Substance ICGCCARIHNYNISVSACLT returned an amyloid nucleation score of 4.3 ± 0.052. Substance ICGGTSESGRYRKAGQGV returned an amyloid nucleation score of 1.07 ± 0.15.

Substance ICIDRNRI showed an amyloid nucleation score of 0.396 ± 0.34. On to ICKGVRKIWSFGDMSWCRES, for which the amyloid nucleation score result was “inactive”. Take ICKRVVVLWHSKEPDALFVG: the amyloid nucleation score result is “inactive”.

With ICPFKSWFFYSLPYAFVRFT, the amyloid nucleation score result was “inactive”.

ICQWRSWLKSTVIFCTRYDF gave an amyloid nucleation score of 3.37 ± 0.13. ICWHV returned an amyloid nucleation score of -0.277 ± 1.1. For the substance ICWRHTGIICKAGSNRSH, the amyloid nucleation score entry was “inactive”.

In the case of IDFRISLCVRFFGCFLLDYY, the amyloid nucleation score was -0.618 ± 0.76. Consider IDSDSFHDRSTSRHLFNGLA, for which the amyloid nucleation score result is “inactive”.

On to IDSILICIMHDCIYIEYLRN, for which the amyloid nucleation score worked out at 4.44 ± 0.094. In turn, IDVGYIYGMVCWQTG came in with an amyloid nucleation score of 4.08 ± 0.083. The result for IDVSKCVLGKDSSLRGTNTR reads -0.595 ± 0.28. IDYHD showed an amyloid nucleation score of -1.45 ± 0.78. Regarding IEFWDYKYVLVSSFVFKHDV, the amyloid nucleation score is -0.069 ± 0.65.

Substance IEGDLFVRLRLRKLSQLFKA yielded an amyloid nucleation score of 0.196 ± 0.77. In turn, IESPLIEFTIDCW had an amyloid nucleation score of -0.025 ± 0.79. Turning to IESSGWAGRGTYSTYLASNV, the amyloid nucleation score stood at 1.2 ± 0.66. With IFAGIHWNGQSAFLVFKCHI, the amyloid nucleation score entry is “inactive”.

Substance IFASRSGFLSIRQLSHPARR registered an amyloid nucleation score of 3.35 ± 0.078. With IFCYPQCVGPRSLCVGGNME the figure was -0.72 ± 0.39. As for IFFLSNLKRKPDDRGLVHKN, the amyloid nucleation score is 2.57 ± 0.14. For the substance IFGFGL, the amyloid nucleation score worked out at 2.85 ± 0.2.

IFIRLFVLANYCINLFSS: the amyloid nucleation score was 3.28 ± 0.082.

IFLQNTSSEWLLSARDRLRY: the amyloid nucleation score was found to be 0.157 ± 1. With IFNRSASYLAFFHKG, the amyloid nucleation score stood at 4.3 ± 0.079. Substance IFPGILH displayed an amyloid nucleation score of -1.83 ± 0.63. Regarding IFRFARSNTYFRGESME, the amyloid nucleation score turned out to be 4.08 ± 0.095.

As to IFYHHLSWTEFRCGRTFLSV, the amyloid nucleation score was determined as 0.196 ± 0.42.

IGIDLVRSGSVIFPSPTWKV yielded an amyloid nucleation score of 4.411 ± 0.037.

On to IGINLCCGDYFIHVLSASCS, for which the amyloid nucleation score was found to be 5.2 ± 0.058. As to IGKRASSPYYRPSIVVYSWD, the amyloid nucleation score is -0.302 ± 0.32.

With IGLNTYTMF, the amyloid nucleation score stood at 0.282 ± 0.49. In turn, IGQRLCYCVCWRSSCGVVWQ registered an amyloid nucleation score of 1.46 ± 0.36. Take IHLIREVAQRFTSCA: the amyloid nucleation score is 0.7 ± 0.28. IHPRSFRNVCLSSHSEMGG: the amyloid nucleation score is -0.813 ± 0.76.

IIALLYIKMTSTLVTVRKSL: the amyloid nucleation score stood at 0.297 ± 0.5.

With IIFVVVASQKVHWFVRVDGD, the amyloid nucleation score is -0.658 ± 1. Substance IIGINVWM gave an amyloid nucleation score of 5.443 ± 0.05. In the case of IIHAFHMSGPLLRAQVS, the amyloid nucleation score is -0.308 ± 0.38. Turning to IIMPF, the amyloid nucleation score is -0.682 ± 0.64. Substance IIRRF gave an amyloid nucleation score of 0.28 ± 0.33. Substance IISGAFRCARNGY had an amyloid nucleation score of 1.62 ± 0.3. IITLSYGGCSVGPCGQ displayed an amyloid nucleation score of 7.371 ± 0.057. Take IIVSDSPTLQRS: the amyloid nucleation score was 0.163 ± 0.63.

In turn, IKHKLWRAYYCSESTLSVLS came in with an amyloid nucleation score of -1.03 ± 0.28. With IKILLCRSGARIGVSCDMSC the figure was 0.706 ± 0.74; with IKKGRWAYGPSLVCKNAMRE, 0.799 ± 0.74; with IKSIT, -0.388 ± 1. Turning to IKVAEGSLVCARYGRMVRLE, the amyloid nucleation score was 4.92 ± 0.053. IKWRSFPDSYLENFEFI gave an amyloid nucleation score of -1.6 ± 1.1. The substance IKYLKCIVMCRFFVHWSSIV displayed an amyloid nucleation score of -1.06 ± 0.76. As to ILAVRQV, the amyloid nucleation score was 0.054 ± 0.79. In the case of ILAYPFRCIETNSLLKMSPL, the amyloid nucleation score was found to be 0.402 ± 0.8. With ILEACREAARPAITFSFFTK the figure was -1.04 ± 1.1. On to ILFGFSLPGSCDNWDRDAKG, for which the amyloid nucleation score was -1.15 ± 0.78. Take ILFGIPN: the amyloid nucleation score is -0.314 ± 0.24.

On to ILFIIWGHLRYVRIVSYVGY, for which the amyloid nucleation score was -1.48 ± 0.62. Substance ILGDNRLKPVTLSRNVALYY came in with an amyloid nucleation score of -1.18 ± 0.78. With ILGQAGMILFNKLAPRGALR the entry was “inactive”; with ILGVLGFGGSRDRLSTRWGS, 1.66 ± 0.16. As to ILKGNNSS, the amyloid nucleation score was -1.2 ± 0.62. Consider ILLFQSAYHKSIEIWGNESF, for which the amyloid nucleation score was found to be 4.21 ± 0.043. In the case of ILLNEVFDRTWSELPGCNCT, the amyloid nucleation score turned out to be 0.043 ± 0.21. As to ILLTFVPAEKSWTSAIL, the amyloid nucleation score was 0.058 ± 0.55. As for ILNYSWALRVIDFTHRKVFS, the amyloid nucleation score is -0.376 ± 0.2. With ILRCICRNILSSSRVRCSYH the entry was “inactive”; with ILSHTGRVYKLRLYVIQIVR, -0.434 ± 0.61; with ILSLMLRSVWRSVLLVLQ, “inactive”. The substance ILTIALVRFSLSRWRLPWPY registered an amyloid nucleation score of 1.36 ± 0.29. ILVHVSFDNRFN had an amyloid nucleation score of 6.06 ± 0.077.
